Laboratory results: patent US8003360B2, “Debaryomyces castellii phytase” (Adisseo France S.A.S., priority 2005, dated 2011)

What was measured:
[1] = test system: Schwanniomyces occidentalis phytase; conditions: Segueilha et al., 1992; cited from earlier work
[2] = target: Debaryomyces castellii CBS 2923 phytase, native (wild type), SEQ ID No. 2 (Schwanniomyces capriottii, UniProt A2TBB4); experiment: Influence of effectors on the phytase activity; type: biochemical; conditions: Table 3
Experimental: (§1) The amount of phosphate released is measured by colorimetery. The visualizing solution, prepared extemporaneously, contains iron sulphate (380 mM, 1 volume) and ammonium heptamolybdate (12 mM, 4 volumes). The absorbance at 700 nm is measured after 30 minutes of visualization at ambient temperature (1 volume of reaction medium+1 volume of visualizing solution), using a UV/visible spectrophotometer (Beckman DU 530).

[3] = test system: Schwanniomyces occidentalis phytase; conditions: Segueilha et al., 1992; cited from earlier work; remark: listed apart in the source
D. castellii phytase = experiment: Influence of effectors on phytase activity; type: biochemical, Debaryomyces castellii
[4] = target: recombinant Debaryomyces castellii CBS 2923 phytase (recPhyt, expressed in Pichia pastoris), SEQ ID No. 2 (Schwanniomyces capriottii, UniProt A2TBB4); experiment: Hydrolysis of inositol phosphates by the recombinant phytase (chromatogram); type: biochemical; conditions: InsP3 compared with InsP4, InsP5 and InsP6
Experimental: (§2) Samples are taken at various times for 6 hours. The reaction is stopped by heating at 100° C. (10 minutes).
(§3) J. Agric. Food Chem. 45, 431-436; Türk, M., Sandberg, A. S., Carlsson, N. G. and Andlid, T. (2000) Inositol hexaphosphate hydrolysis by baker's yeast. Capacity, kinetics, and degradation products. J. Agric. Food Chem. 48, 100-104). […] This system makes it possible to detect the Ins P2 to Ins P6, but only the various isomers of Ins P4 and Ins P5 can be separated.
See Example 1, 7.5 and 7.6.

[5] = test system: Debaryomyces castellii CBS2923 phytase; experiment: Influence of the environment (additives, calcium, buffer molarity) on thermostability of the phytase; type: physicochemical; conditions: control: 250 mM acetate buffer pH 4, 1 mM calcium chloride, no additive
Experimental: At the end of treatment, the extract is cooled in water at +4° C. […] Three types of elements are tested: • sugars or sugar alcohol: sucrose, lactose, trehalose, arabinose, glycerol, • the absence of calcium, • the molarity of the buffer. […] At the end of treatment, the extract is cooled in water to +4° C. […] Materials and Methods).

[6] = Storage stability of the phytase at -20° C. at various pHs; type: physicochemical
[7] = Hydrolysis of phytic acid followed over time (HPIC, phosphate assay); type: biochemical; conditions: after 300 minutes of hydrolysis, pH 4, 0.6 U/ml
Experimental: as §2, §3
The hydrolysis conditions are described in Materials and Methods. The appearance of the various Ins Pn is monitored over time. After 15 minutes of hydrolysis, Ins P6 has virtually disappeared, 4 major peaks are detected and correspond to Ins (1,2,4,5,6) P5, Ins (1,2,5,6) P4, and peaks of Ins P3, Ins P2 and Ins P1 not identified by this method (FIG. 7). The assignment of the Ins P5 and Ins P4 is confirmed by the addition of authentic inositol samples. After 120 minutes of hydrolysis, the Ins P3 and Ins P1 peaks are predominant. This could reflect a much slower rate of hydrolysis of Ins P3 compared with Ins P4, 5 and 6. […] The enzyme releases all the phosphates. The characterization of the Ins Pn fractions separated by chromatography is carried out by NMR analysis.

[8] = Heat denaturation / heat stability of the phytase; type: physicochemical
Experimental: FIG. 3: Heat denaturation of the D. castellii phytase. […] The activity is then measured at 37° C. for 20 min.
(§4) The effect of pH on the phytase activity is determined using the following buffer solutions: 200 mM glycine-HCl, pH 2-3.5; 200 mM sodium acetate-acetic acid, pH 3.5-7; and 200 mM tris-HCl, pH 7-9. The reactions are carried out at +37° C. using the phytate as substrate. The optimum temperature is determined by varying the temperature from +30° C. to +80° C. […] After the heat treatment, the mixture is cooled in ice and the phytase activity is determined using the phytate as substrate.
It is denatured above 68° C., with a 70% loss of activity after one hour at 70° C. The energy for activation of the denaturation, calculated by means of the Arrhenius representation, is 606 kJ/mol.

[9] = Specific phytase activity by phytate hydrolysis; type: biochemical; conditions: native D. castellii phytase, purification steps
Experimental: The protein content is determined by the Bradford method (Bradford, M. (1976) A rapid and sensitive method for the quantification of microgram quantities of proteins utilizing the principle of protein-dye binding. Anal. Biochem. 72, 248-254). (Biorad Protein Assay Dye Reagent Concentrate, BIORAD 500-0006), the absorbance is measured at 595 nm (Beckman DU 530 UV/visible spectrophotometer). The calibration is carried out with a bovine serum albumin range.
One enzymatic unit (U) is defined as the amount of enzyme which releases one μmol of inorganic phosphate in one minute.
as §1

[10] = Hydrolysis kinetics of InsP6 followed by NMR; type: biochemical
Experimental: The time period between two spectra is 23 minutes. After an overnight period, 20 μl of enzyme were added in order to accelerate the reaction. After 16 h, the hydrolysis is complete and the spectrum characteristic of inositol is obtained (top spectrum). These kinetics clearly show the successive appearance of InsP5, of InsP4 and of InsP3.
FIG. 10: Faster kinetics making it possible to follow the complete hydrolysis of InsP6 (600 MHz, 17° C., 500 μl D2O, 3.8 mM of InsP6, pH 4.0, 5 μl of enzyme). A spectrum was recorded every 3 min for 20 h (400 spectra). After 10 hours, the hydrolysis is virtually complete. The spectra plotted correspond to one spectrum out of 10 (30 min between two spectra). Some characteristic signals are annotated.
The sample used to follow the hydrolysis by NMR is prepared from a stock solution of InsP6/phosphate buffer, 96/700 mM in D2O. […] Depending on the desired rate of hydrolysis, a greater or smaller amount of enzyme (1 to 20 μl of the stock solution at 3 U/ml) is added. The kinetics are followed at 17° C. by recording a spectrum (32 scans) every 3 minutes for 20 hours (400 spectra). Using the spectra characteristic of the various inositol phosphates determined previously, their appearance and disappearance can be followed over the entire kinetics.
Depending on the temperature (in this case 17° C.) and on the concentration of enzyme, kinetics can be slow (1 μl of enzyme) and the appearance of the first intermediates readily observed. It is under these conditions that the spectral characteristics of InsP5 were obtained and that the successive appearance of Ins P5, Ins P4 and Ins P3 is clearly seen.
In the presence of 5 μl of enzyme, the formation of Ins P2, Ins P1 and inositol is observed. In the intermediate phase, the complexity of the spectra obtained accounts for the mixture of the Ins Pns. After hours, the hydrolysis is not complete. In the presence of 20 μl of enzyme, complete hydrolysis was obtained in approximately 4 hours. […]

[11] = pH-stability and temperature-stability of the phytase; type: physicochemical; conditions: for denaturation: 1 hour
Experimental: FIG. 4: Study of the pH-stability and temperature-stability. The phytase activity of D. castellii is measured after treatment of the extract at various pHs for 1 hour at two temperatures (40° C. or 60° C.). The activity is measured at pH 4.
The phytase activity is measured after incubation of the enzyme at 2 temperatures (40 and 60° C.) in buffers whose pH is between 2 and 8 (FIG. 4). […] On the other hand, in the range 3 to 7, from 80 to 100% of activity is conserved at 40° C. At 60° C., the phytase is more highly denatured at pH 3 and pH 8.

[12] = Phytase activity as a function of temperature; type: biochemical; conditions: reaction of phytate hydrolysis
Experimental: FIG. 2: Activity of the D. castellii phytase as a function of temperature. The activity is measured at pH 4, at 37° C. for 20 minutes.
as §4
The optimum temperature is determined on the native phytase, by measuring the phytase activity at various temperatures: from 30 to 80° C. (FIG. 2).

## O=C(O)c1cc[c]([Hg][Cl])cc1 [PCMB]
[1]
  effect on phytase activity: greatly inhibits
[2]
  effect on the phytase activity (in words): not sensitive
[3]
  inhibition of the activity (in words): greatly inhibits
D. castellii phytase; effector 3 mM, phytate control = 100
  % activity: 94.5%
D. castellii phytase; inhibitors tested, see Table 3
  effect on phytase activity: absence of effect

## InsP3
[4]
  affinity (in words): weaker affinity

B1: D. castellii phytase: Debaryomyces castellii CBS 2923 phytase of SEQ ID No. 2, a secreted glycosylated 3-phytase (protein, listed as Debaryomyces castellii)
chain: MVSVSKLINNGLLLVGQGAYQDLASPQQASVEQYNIIRFLGGAAPYIQNKGFGISTDIPDQCTLEQVQLFSRHGERYPSTGSGKKYKAVYEKLMSYNGTFKGELAFLNDDYEYFVPDSVYLEKETSPKNSDSIYAGTTDAMKHGIAFRTKYGELFDTNDTLPVFTSNSGRVYQTSQYFARGFMGDDFSNDTVKTNIISEDADMGANSLTPRDGCFNYNENANTAIVDEYTTEYLTKALNRFKASNPGLNITEDDVSNLFGYCAYELNVKGASPMCDIFTNEEFIQYSYSVDLDDYYSNSAGNNMTRVIGSTLLNASLELLNHDKNENKIWLSFTHDTDIEIFHSAIGILIPDEDLPVDYTPFPSPYSHVGITPQGARTIIEKYACGNESYVRYVINDAVIPIKKCSSGPGFSCNLNDYNDYVAERVAGTNYVEQCGNNNASAVTFYWDYETTNYTASLINS
modifications: glycosylated
[5]
  activity after 1 h at 20° C.: 99
  activity after 1 h at 66.5° C.: 47
[6]; 21 days at -20° C., pHs of less than 5
  denaturation after storage: completely denatured
[6]; 67 days at -20° C., pHs of between 5 and 7
  denaturation after storage: no denaturation
[7]
  amount of phosphate assayed as share of the potential phosphates of the phytate molecule: 100%
[8]; after one hour at 70° C.
  loss of activity: 70%
[8]; heat denaturation
  energy for activation of the denaturation (Arrhenius representation): 145 kcal/mol
[8]; heat denaturation study
  temperature above which the enzyme is denatured: above 68 °C
  temperature up to / below which the enzyme is stable: up to 66 °C
[8]; in 125 mM acetate buffer, pH 4
  temperature at which the enzyme is stable for one hour: 66 °C
[8]; in water
  temperature at which the enzyme is stable for one hour: 60 °C
[9]
  Specific activity: 156 U/mg
[10]; 1.7 mM InsP6, pH 4.0, 17° C., 1 μl enzyme, 20 μl added after an overnight period
  time after which hydrolysis of InsP6 is complete: 16 h
[10]; 3.8 mM InsP6, pH 4.0, 5 μl of enzyme, 17° C.
  time after which hydrolysis of InsP6 is virtually complete: ~10 h
[10]; 20 μl of enzyme, 17° C.
  time to complete hydrolysis of InsP6: approximately 4 hours
[11]; pH 2 and pH 8, 40 and 60° C.
  activity after 1 hour of contact: complete loss of activity
[11]; pH 8, acetate buffer
  denaturation: complete
[11]; pH 8, tris HCl buffer
  denaturation: 50%
[12]
  activation energy calculated according to the Arrhenius representation: 9.08 kcal/mol
